Tested on: MS2 coat protein
Test: apparent KD of MS2 coat protein; higher = weaker reporter binding
Details: Eterna round: R107
Procedure, shortened: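 Designed RNA switches were transcribed on-chip from Illumina sequencing clusters and titrated with SNAP-549-labelled MS2 coat protein in twofold steps from 0.7 or 1.5 nM up to 3 µM. Each step lasted 0.8–1.5 h at first and 10–20 min by the end, in 100 mM Tris-HCl pH 7.5, 80 mM KCl and 4 mM MgCl2, without or with constant ligand. Apparent KD is the median, for each design, of fits to normalised cluster binding curves.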

[1] = input ligand: theophylline 20 uM
[2] = input ligand: theophylline 2 mM
[3] = input ligand: tryptophan 2.4 mM

Sequence	apparent KD of MS2 coat protein (input ligand: arginine 13.2 mM)	apparent KD of MS2 coat protein [1]	apparent KD of MS2 coat protein [2]	apparent KD of MS2 coat protein (input ligand: none)	apparent KD of MS2 coat protein [3]
AUAACGAGUGGUGGAAUACAUGGGUGAUAACGAGGACCGGUACGGCCGCCACUCGAUAACAUGAGGAUCACCCAUGUAAUAAUAA [|T'-M'-Trp-Ms2|_Design18]	0.0573 µM	0.16 µM	0.139 µM		
AUAACUGUAAUAAACCGCAGGCUAGUGGAAGGAGCGCGGAAUAACGCAGGUAGGUCGCCACAAACUUGAGGAUCACCCAGGUGGC [SSAA NP+V+V2 #7 Diff Apt]	0.0381 µM	0.0788 µM	0.0577 µM	0.049 µM	0.0486 µM
AUAAGCUGUACCGGAAUAUCCUCAUGUAUACGAGGACCGGUACGGCCGCCACUCGAUAACAUGAGGAUCACCCAUGUAAUAAUAA [|T'-M'-Trp-Ms2|_Design20]	0.0142 µM	0.0154 µM	0.0145 µM		
AUAAGUAAUGUUUCGUGUAUUAUUACAGAUACCAGACUAUCCUAUGUCCCUUGGCAGCUGGAUUACAUGAGGAUCACCCAUGUUG [JR_ExcTheophyA_Sub001]	0.0157 µM	0.0203 µM			0.0171 µM
AUAAGUAAUGUUUCGUGUUUUAUUACAGAUACCAGACUAUACGUUGUCCCUUGGCAGCUGGAUUACAUGAGGAUCACCCAUGUUG [JR_ExcTheophyA_Sub003]	0.0176 µM	0.0265 µM			0.0185 µM
AUAAUAAUCCUCAUGUAAGGUCCUCGAUAACGAGGACCGGUACGGCCGCCACUCGAACAUGAGGAUCACCCAUGUACGAGGACCA [M' - T' - T - MS2 - T'' Design 1]	0.0196 µM	0.037 µM	0.0382 µM		
AUAAUAGGGAUAAUUAGUUUUAGGUCCAGUCGAGGACCGGUACGGCCGCCACUCGUACAGAAAUACAUGAGGAUCACCCAUGUUA [JR_SSTryptoA_Sub005]	0.014 µM	0.0215 µM	0.0151 µM	0.0136 µM	0.0161 µM
AUACAUGAGGAUCACCCAUGUAUAGAUGAAGGAGCGACCAGAGGGUCAGGUAGGUCGCAUCACAUGAGGAUCACCCAUGUAUCGA [DOUBLE!!! :-D #8]	0.0336 µM	0.053 µM	0.0672 µM	0.0568 µM	0.0471 µM
AUACAUGAGGAUCACCCAUGUCCUCGUGAUCGAGGACCGGUACGGCCGCCACUCGGUCCUCGCGAGGAGGAGUCAAAGACUCCUA [Omei Trp A SS A v6]	0.0972 µM	0.23 µM	0.24 µM		
AUACAUGAGGAUCACCCAUGUCCUCGUGAUCGAGGACCGGUACGGCCGCCACUCGGUCCUCGCGAGGUGGAGUCAAAGACUCCAA [Omei Trp A SS A v5]	0.109 µM	0.166 µM	0.137 µM		
AUACAUGAGGAUCACCCAUGUUAUAGUGAAGGAGCGACAUUUAUGUCAGGUAGGUCGCACUAAAGUUUAAUAAUUCUUUGAUCUU [JR_SSArginiA_Sub011]	0.0186 µM	0.0249 µM	0.0156 µM	0.0157 µM	0.0186 µM
AUACAUGAGUGUUUGAUUAUAGAAACUGAAGGAGCGUGGUAGUACACAGGUAGGUCGCAGUAAAUACAUGAGGAUCACCCAUGUU [JR_Nu_SSArginiA_Sub026]	0.0292 µM	0.0365 µM	0.0365 µM	0.0329 µM	0.0384 µM
AUACCUAAUGUUACGUUUUCCUUUUCAGAUACCAGACUUUACGUUGUCCCUUGGCAGCUGUAUUACAUGAGGAUCACCCAUGUUG [JR_SSTheophyA_Sub008]	0.0198 µM	0.0267 µM			0.0204 µM
AUACGGAACAGAAGGAGCGCACCGACAUGAGGAUCACCCAUGUGGGAUGGGACUCUUUUGGUGCAGGUAGGUCGCUGUCACGCAU [Maistile]	0.129 µM	0.0519 µM	0.044 µM	0.035 µM	0.0355 µM
AUAGUUAUCAGAAGGAGCGUCAUUAACAUGAGGAUCACCCAUGUAACAUUGAAUUCGAUGAGACAGGUAGGUCGCUGAAUAUUAA [SS-ArgB28]	0.0323 µM	0.048 µM	0.0417 µM	0.0396 µM	0.036 µM
AUAUAUACAUGAGGAUCACCCAUGUUAUUUCGAGGACCGGUACGGCCGCCACUCGAUAGAGUAGAAGUAACAUUUGUUAGAUGAU [JR_SSTryptoA_Sub012]	0.0239 µM	0.0252 µM	0.0244 µM		
AUAUUUAACGGAAGGAGCGGGAAAUAAUCAUGAUGACAUGAGGAUCACCCAUGUCUUAAAACCCAGGUAGGUCGCCGAAUAAUAA [Same State - Arginine B]	0.0121 µM	0.0145 µM	0.013 µM	0.0111 µM	0.0117 µM
AUCAUAAUAGACUCGUUUGAUUAUAUGGAACGAGGACCGGUACGGCCGCCACUCGUGAUUUACAUGAGGAUCACCCAUGUUAGCA [JR_ExcTryptoA_Sub005]	0.017 µM	0.0235 µM	0.0194 µM		

Sequence	apparent KD of MS2 coat protein (input ligand: arginine 13.2 mM)	apparent KD of MS2 coat protein [1]	apparent KD of MS2 coat protein [2]	apparent KD of MS2 coat protein (input ligand: none)	apparent KD of MS2 coat protein [3]
AUCCACAGCCGAAGGAGCGCUAGAAGAUGACAUGAGGAUCACCCAUGUGUGUGAUGUGGCUAGCAGGUAGGUCGCGGAGUGGAUU [Exclusion - Arginine B (Freestyle 12)]	0.0316 µM	0.0355 µM	0.0262 µM	0.0243 µM	0.0247 µM
AUCCAGAGCCGAAGGAGCGCUAGAAGAUGACAUGAGGAUCACCCAUGUGUGUGAUGUGGCUAGCAGGUAGGUCGCGGACUGGAUU [Exclusion - Arginine B (Freestyle 13)]	0.0201 µM	0.0281 µM	0.0335 µM	0.0224 µM	0.0187 µM
AUCGGCCAGGGAAGGAGCGUGAAGACAUGAGGAUCACCCAUGUAGAGGCGCCGAAGGCGUUCGCAGGUAGGUCGCCCUGGCUGAU [#1 Same State - Arginine B Attempt #27 (HarryS)]	0.0147 µM	0.0238 µM	0.0177 µM	0.0147 µM	0.0158 µM
AUCGGGCCUUUAGAACCGCCGUUCCCACCUCGAGGACCGGUACGGCCGCCACUCGGGUGACAUGAGGAUCACCCAUGUGGACGAA [Gexebidive]	0.031 µM	0.432 µM	0.737 µM	0.181 µM	0.284 µM
AUCGUACCUAAUGAUACCAGCAAGUGAUCAUAACAUGAGGAUCACCCAUGUAAUCAGUGAUGCCCUUGGCAGCAUAAUCGAUACA [Same State - Theophylline B (Freestyle 3)]	0.103 µM	0.17 µM			0.129 µM
AUGCACAUCAGAAGGAGCGUCUUGGCCAAUCUAGGCCAACAUGAGGAUCACCCAUGUGCAGGACAGGUAGGUCGCUGAUGUGUAG [Arg B SS t8]	0.0116 µM	0.0178 µM	0.0145 µM	0.0123 µM	0.0124 µM
AUGCAGAACACGGCCGCCACUCCAUGUAUACAUGAGGAUCACCCAUGUAAUUUGUAUUUUUUAUAGAGGACCGGGUGAAAUGCAA [JR_SSTryptoB_Sub012]	0.0267 µM	0.0387 µM	0.0429 µM		
AUGCAUAGCGGAAGGAGCGCAAUAGAAUGACAUGAGGAUCACCCAUGUGUGUGAUGUGGGUUGCAGGUAGGUCGCCGAGUGGUAU [Exclusion - Arginine B (Freestyle 2)]	0.084 µM	0.128 µM	0.108 µM	0.092 µM	0.0905 µM
AUGCAUGUCAGAAGGAGCGUCUUUAACAUGAGGAUCACCCAUGUAACAUUGAAUUCGAUGAGACAGGUAGGUCGCUGAAUAGUAA [JR_SSArginiB_Sub020]	0.0211 µM	0.0723 µM	0.0625 µM	0.0828 µM	0.0429 µM
AUGCGCUAUAUGGAUACCAGUAUGAUAAUUGACAUGAGGAUCACCCAUGUGAGCUCUACCUACCCUUGGCAGCCAACCCUAUUUG [theeternabot_sameState_MS2_Theo_B_26]	0.0217 µM	0.0299 µM			0.023 µM
AUGCGGUGCGGAAGGAGCGAGUUUGCCUAUUUACAUGAGGAUCACCCAUGUCCUAAUGGGACUCAGGUAGGUCGCCGUUGUUGCA [Same State Arginine B GF30]	0.042 µM	0.0714 µM	0.0479 µM	0.045 µM	0.0416 µM
AUGCUGACAAGGAGGUGUUCCUCAGCUGAUACCAGCCUGGAAACAGGCCCUUGGCAGCAGCACAUGAGGAUCACCCAUGUAAUAA [(T)'-(M)'-(T1)-(T2)-(M1)-(M2)_Design1(Mismatches)]	0.0565 µM	0.517 µM	0.0124 µM	0.027 µM	0.0334 µM
AUGGUCGACGAUCUGCGAAAAGCAGAUCGACGAGGACCGGUACGGCCGCCACUCGUGUUUAUUUAACAUGAGGAUCACCCAUGUA [#14Tryptophan A Same State]	0.0706 µM	0.123 µM	0.142 µM		
AUGUAUGUCAGAAGGAGCGUCUUUAACAUGAGGAUCACCCAUGUAACAUUGAAUUCGAUGAGACAGGUAGGUCGCUGAAUAGUAA [SS-ArgB25]	0.0297 µM	0.066 µM	0.0188 µM	0.035 µM	0.0219 µM
AUGUCGUUGAAUAUAGCGGCUUGGAGUGAUACCAGUAUGAUCCAAUACCCUUGGCAGCAUAACAUGAGGAUCACCCAUGUUCCAG [SSTheo A #25]	0.0195 µM	0.0437 µM			0.0186 µM
AUGUCGUUGAAUAUAGCGGCUUGGUGUGAUACCAGAAUGAUCAAAUUCCCUUGGCAGCAUUACAUGAGGAUCACCCAUGUUUAGG [SSTheo A #18]	0.0186 µM	0.0302 µM			0.0293 µM
AUGUCGUUGAAUAUAGCGGCUUGGUGUGAUACCAGAAUGAUCUAAUUCCCUUGGCAGCAUUACAUGAGGAUCACCCAUGUUCAGG [SSTheo A #20]	0.022 µM	0.028 µM			0.0263 µM

Reference: the supplement of paper PMC9170038
